Measurements reported in patent US20250163117A1 (CURE GENETICS, published 2025).
Substitutions are numbered along the chain they refer to. Where two headings read alike, the source gives them in different places. Values belong to the binder of their own block, whether it stands above or below them.

Columns and labels:
Assay in all cases: cell-based or functional assay
[1] = target: T1, mouse intermediate-affinity IL-2 receptor IL-2Rβγ on cells (mouse, UniProt P16297 27-539; P34902 23-369)
T1 sequence (looked up) 1: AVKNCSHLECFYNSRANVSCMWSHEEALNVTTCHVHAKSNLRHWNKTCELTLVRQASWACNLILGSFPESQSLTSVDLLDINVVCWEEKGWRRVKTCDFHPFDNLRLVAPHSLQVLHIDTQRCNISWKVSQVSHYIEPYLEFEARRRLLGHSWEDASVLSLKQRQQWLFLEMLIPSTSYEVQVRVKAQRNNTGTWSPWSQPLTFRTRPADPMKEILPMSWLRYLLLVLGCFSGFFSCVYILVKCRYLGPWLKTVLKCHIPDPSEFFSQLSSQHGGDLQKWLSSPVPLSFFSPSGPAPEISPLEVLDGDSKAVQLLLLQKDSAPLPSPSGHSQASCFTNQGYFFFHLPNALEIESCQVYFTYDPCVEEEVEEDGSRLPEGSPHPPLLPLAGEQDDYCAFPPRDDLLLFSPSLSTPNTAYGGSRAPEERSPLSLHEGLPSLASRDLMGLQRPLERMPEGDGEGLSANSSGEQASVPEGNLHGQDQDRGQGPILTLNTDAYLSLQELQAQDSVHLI
T1 sequence (looked up) 2: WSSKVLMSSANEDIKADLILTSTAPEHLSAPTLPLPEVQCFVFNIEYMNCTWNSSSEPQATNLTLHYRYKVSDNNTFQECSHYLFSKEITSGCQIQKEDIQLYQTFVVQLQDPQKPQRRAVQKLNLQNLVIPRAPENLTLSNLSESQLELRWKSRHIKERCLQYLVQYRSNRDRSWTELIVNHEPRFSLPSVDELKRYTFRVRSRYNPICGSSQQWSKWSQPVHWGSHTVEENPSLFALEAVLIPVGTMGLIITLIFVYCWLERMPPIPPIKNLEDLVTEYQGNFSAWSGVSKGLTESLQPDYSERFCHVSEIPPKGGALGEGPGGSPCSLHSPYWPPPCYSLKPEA

[2] = target: T2, mouse high-affinity IL-2 receptor IL-2Rαβγ on cells (mouse, UniProt P01590 22-268; P16297 27-539; P34902 23-369)
T2 sequence (looked up) 1: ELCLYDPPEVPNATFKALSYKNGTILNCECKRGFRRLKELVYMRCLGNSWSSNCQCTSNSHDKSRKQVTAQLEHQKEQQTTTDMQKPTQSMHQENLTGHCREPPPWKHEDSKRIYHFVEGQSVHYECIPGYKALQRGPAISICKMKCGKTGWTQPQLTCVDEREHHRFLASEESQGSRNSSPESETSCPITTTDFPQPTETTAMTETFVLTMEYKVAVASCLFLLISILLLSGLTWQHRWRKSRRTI
T2 sequence (looked up) 2: T1 sequence (looked up) 1
T2 sequence (looked up) 3: T1 sequence (looked up) 2

[3] = target: T3, human high-affinity IL-2 receptor IL-2Rαβγ on cells (human, UniProt P01589 22-272; P14784 27-551; P31785 23-369)
T3 sequence (looked up) 1: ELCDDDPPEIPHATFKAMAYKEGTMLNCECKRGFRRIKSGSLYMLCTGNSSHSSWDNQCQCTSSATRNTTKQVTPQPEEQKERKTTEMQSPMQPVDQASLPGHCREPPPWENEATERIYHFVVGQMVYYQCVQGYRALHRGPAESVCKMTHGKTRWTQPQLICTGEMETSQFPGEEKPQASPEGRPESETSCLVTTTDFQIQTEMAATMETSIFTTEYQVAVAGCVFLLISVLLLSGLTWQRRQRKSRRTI
T3 sequence (looked up) 2: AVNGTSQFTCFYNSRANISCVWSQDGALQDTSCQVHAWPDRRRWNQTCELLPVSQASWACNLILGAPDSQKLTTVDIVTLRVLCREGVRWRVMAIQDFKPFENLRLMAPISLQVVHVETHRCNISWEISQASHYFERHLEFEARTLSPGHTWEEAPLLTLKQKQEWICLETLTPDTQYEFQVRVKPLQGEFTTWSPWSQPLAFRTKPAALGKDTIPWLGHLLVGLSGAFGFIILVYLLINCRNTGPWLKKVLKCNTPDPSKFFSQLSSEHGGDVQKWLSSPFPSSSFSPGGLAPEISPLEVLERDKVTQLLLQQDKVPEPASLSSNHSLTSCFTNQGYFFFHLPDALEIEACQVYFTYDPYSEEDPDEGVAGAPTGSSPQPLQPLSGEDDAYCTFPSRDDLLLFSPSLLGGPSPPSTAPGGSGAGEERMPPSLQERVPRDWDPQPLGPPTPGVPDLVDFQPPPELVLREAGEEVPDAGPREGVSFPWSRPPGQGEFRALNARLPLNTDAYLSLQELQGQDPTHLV
T3 sequence (looked up) 3: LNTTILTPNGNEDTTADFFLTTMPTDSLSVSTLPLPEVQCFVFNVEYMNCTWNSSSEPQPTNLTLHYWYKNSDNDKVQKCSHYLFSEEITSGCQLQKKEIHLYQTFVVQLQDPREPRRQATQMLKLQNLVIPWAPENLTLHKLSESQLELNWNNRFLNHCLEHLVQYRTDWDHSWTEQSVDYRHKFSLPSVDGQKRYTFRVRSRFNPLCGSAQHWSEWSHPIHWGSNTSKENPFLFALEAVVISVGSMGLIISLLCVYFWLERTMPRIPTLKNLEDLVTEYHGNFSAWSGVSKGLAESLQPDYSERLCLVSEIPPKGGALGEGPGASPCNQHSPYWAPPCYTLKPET

[4] = target: T4, human intermediate-affinity IL-2 receptor IL-2Rβγ on cells (human, UniProt P14784 27-551; P31785 23-369)
T4 sequence (looked up) 1: T3 sequence (looked up) 2
T4 sequence (looked up) 2: T3 sequence (looked up) 3

[5] = target: T4, human intermediate-affinity IL-2 …; remark: listed apart in the source
[6] = target: T1, mouse intermediate-affinity IL-2 …; remark: listed apart in the source
[7] = target: T3, human high-affinity IL-2 receptor …; remark: listed apart in the source
[8] = target: T4, human intermediate-affinity IL-2 …; remark: listed apart in the source
[9] = target: T2, mouse high-affinity IL-2 receptor …; remark: listed apart in the source
[10] = target: T4, human intermediate-affinity IL-2 …; remark: listed apart in the source

% pSTAT5 in mouse splenocytes at High IL-2v concentration (25 nM per paragraph 254); western blot, pSTAT5/STAT5 normalised to 001 High [1]: 20.5%
% pSTAT5 in mouse splenocytes at Low IL-2v concentration (2.5 nM per paragraph 254); western blot, pSTAT5/STAT5 normalised to 001 High [2]: 13.8%
% pSTAT5 in human PBMC at Low IL-2v concentration (2.5 nM per paragraph 254); western blot, pSTAT5/STAT5 normalised to 001 High [3]: 10.7%
% pSTAT5 in human PBMC at High IL-2v concentration (25 nM per paragraph 254); western blot, pSTAT5/STAT5 normalised to 001 High [4]: 12.1%
B1: CP-trIL-2 062 (ligand)
chain: TIVEFLNRWITFSQSIISTLTGGGGSGGGGSELKHLQSLEEELKDLEEVLNLAQSKNFHLRPRDLISNINVIVLELKGSETTPTSSSTKKTQLQLEHLLLDLQMILNGIN

% pSTAT5 in mouse splenocytes at High IL-2v concentration (25 nM per paragraph 254); western blot, pSTAT5/STAT5 normalised to 001 High [1]: 25.2%
% pSTAT5 in mouse splenocytes at Low IL-2v concentration (2.5 nM per paragraph 254); western blot, pSTAT5/STAT5 normalised to 001 High [2]: 16.7%
% pSTAT5 in human PBMC at Low IL-2v concentration (2.5 nM per paragraph 254); western blot, pSTAT5/STAT5 normalised to 001 High [3]: 15.6%
% pSTAT5 in human PBMC at High IL-2v concentration (25 nM per paragraph 254); western blot, pSTAT5/STAT5 normalised to 001 High [4]: 45.8%
B3: CP-trIL-2 082 (ligand)
chain: LRPRDLISNINVIVLELKGSETTPTSSSTKKTQLQLEHLLLDLQMILNGINNYKNPTIVEFLNRWITFSQSIISTLTGGGGSGGGGSELKHLQSLEEELKDLEEVLN

EC50 (read off the curve): STAT5 phosphorylation in HH cells [5]: ~20 nM
% pSTAT5 in mouse splenocytes at High IL-2v concentration (25 nM per paragraph 254); western blot, pSTAT5/STAT5 normalised to 001 High [1]: 91.3%
% pSTAT5 in mouse splenocytes at Low IL-2v concentration (2.5 nM per paragraph 254); western blot, pSTAT5/STAT5 normalised to 001 High [2]: 30.7%
% pSTAT5 in human PBMC at Low IL-2v concentration (2.5 nM per paragraph 254); western blot, pSTAT5/STAT5 normalised to 001 High [3]: 6.5%
% pSTAT5 in human PBMC at High IL-2v concentration (25 nM per paragraph 254); western blot, pSTAT5/STAT5 normalised to 001 High [4]: 41.4%
EC50 of STAT5 activation, mouse CD8 T cells (flow cytometry) [6]: 110 nM
EC50 of STAT5 activation, mouse NK cells (flow cytometry) [6]: 113 nM
EC50 of STAT5 activation, human Tregs (flow cytometry) [7]: 22 nM
EC50 of STAT5 activation, human CD8 T cells (flow cytometry) [8]: 45.7 nM
EC50 of STAT5 activation, human NK cells (flow cytometry) [8]: 15.6 nM
EC50 of STAT5 activation, mouse Tregs (flow cytometry) [9]: 129 nM
B4: CP-trIL-2 072 (ligand)
chain: ELKHLQSLEEELKDLEEVLNLAQSKNFHLRPRDLISNINVIVLELKGSETTPTSSSTKKTQLQLEHLLLDLQMILNGINNYKNPTIVEFLNRWITFSQSIISTLT

EC50 (read off the curve): STAT5 phosphorylation in HH cells [5]: ~10 nM
B5: CP-trIL-2 073 (ligand)
chain: B4 chain with F89K, F96K

Second part, the binder before the results:

B2: CP-trIL-2 051 (ligand)
chain: PTSSSTKKTQLQLEHLLLDLQMILNGINNYKNPTIVEFLNRWITFSQSIISTLTGGGGSGGGGSELKHLQSLEEELKPLEEVLNLAQSKNFHLRPRDLISNINVIVLELKG
% pSTAT5 in mouse splenocytes at High IL-2v concentration (25 nM per paragraph 254); western blot, pSTAT5/STAT5 normalised to 001 High [1]: 21.8%
% pSTAT5 in mouse splenocytes at Low IL-2v concentration (2.5 nM per paragraph 254); western blot, pSTAT5/STAT5 normalised to 001 High [2]: 14.6%
% pSTAT5 in human PBMC at Low IL-2v concentration (2.5 nM per paragraph 254); western blot, pSTAT5/STAT5 normalised to 001 High [3]: 9.5%
% pSTAT5 in human PBMC at High IL-2v concentration (25 nM per paragraph 254); western blot, pSTAT5/STAT5 normalised to 001 High [4]: 18.2%

B6: CP-trIL-2 042 (ligand)
chain: TIVEFLNRWITFSQSIISTLTGGGGSGGGGSPTSSSTKKTQLQLEHLLLDLQMILNGINNYKNPLRPRDLISNINVIVLELKGSETTELKHLQSLEEELKDLEEVLN
% pSTAT5 in mouse splenocytes at High IL-2v concentration (25 nM per paragraph 254); western blot, pSTAT5/STAT5 normalised to 001 High [1]: 16.1%
% pSTAT5 in mouse splenocytes at Low IL-2v concentration (2.5 nM per paragraph 254); western blot, pSTAT5/STAT5 normalised to 001 High [2]: 13.9%
% pSTAT5 in human PBMC at Low IL-2v concentration (2.5 nM per paragraph 254); western blot, pSTAT5/STAT5 normalised to 001 High [3]: 6.2%
% pSTAT5 in human PBMC at High IL-2v concentration (25 nM per paragraph 254); western blot, pSTAT5/STAT5 normalised to 001 High [4]: 9.3%

B7: CP-trIL-2 011 (ligand)
chain: PTSSSTKKTQLQLEHLLLDLQMILNGINNYKNPLRPRDLISNINVIVLELKGSETTELKHLQSLEEELKPLEEVLNLAQSKNFHTIVEFLNRWITFSQSIISTLT
EC50 (read off the curve): STAT5 phosphorylation in HH cells [10]: ~6 nM

B8: CP-trIL-2 021 (ligand)
chain: LRPRDLISNINVIVLELKGSETTELKHLQSLEEELKPLEEVLNLAQSKNFHTIVEFLNRWITFSQSIISTLTGGGGSGGGGSPTSSSTKKTQLQLEHLLLDLQMILNGIN
EC50 (read off the curve): STAT5 phosphorylation in HH cells [10]: ~30 nM

B9: CP-trIL-2 022 (ligand)
chain: B8 chain with P37D
EC50 (read off the curve): STAT5 phosphorylation in HH cells [10]: ~20 nM
% pSTAT5 in mouse splenocytes at High IL-2v concentration (25 nM per paragraph 254); western blot, pSTAT5/STAT5 normalised to 001 High [1]: 68.5%
% pSTAT5 in mouse splenocytes at Low IL-2v concentration (2.5 nM per paragraph 254); western blot, pSTAT5/STAT5 normalised to 001 High [2]: 24.8%
% pSTAT5 in human PBMC at Low IL-2v concentration (2.5 nM per paragraph 254); western blot, pSTAT5/STAT5 normalised to 001 High [3]: 9.1%
% pSTAT5 in human PBMC at High IL-2v concentration (25 nM per paragraph 254); western blot, pSTAT5/STAT5 normalised to 001 High [4]: 38.1%

B10: CP-trIL-2 032 (ligand)
chain: ELKHLQSLEEELKDLEEVLNLAQSKNFHTIVEFLNRWITFSQSIISTLTGGGGSGGGGSPTSSSTKKTQLQLEHLLLDLQMILNGINNYKNPLRPRDLISNINVIVLELKG
% pSTAT5 in mouse splenocytes at High IL-2v concentration (25 nM per paragraph 254); western blot, pSTAT5/STAT5 normalised to 001 High [1]: 18.9%
% pSTAT5 in mouse splenocytes at Low IL-2v concentration (2.5 nM per paragraph 254); western blot, pSTAT5/STAT5 normalised to 001 High [2]: 11.5%
% pSTAT5 in human PBMC at Low IL-2v concentration (2.5 nM per paragraph 254); western blot, pSTAT5/STAT5 normalised to 001 High [3]: 10.4%
% pSTAT5 in human PBMC at High IL-2v concentration (25 nM per paragraph 254); western blot, pSTAT5/STAT5 normalised to 001 High [4]: 7.6%
